Source: publication PMC3177407

Tests used:
[1] = target: Integrin α3β1 (UniProt P26006)
[2] = target: integrin alpha3beta1 (Homo sapiens) (UniProt P26006); conditions: cited from earlier work
Chain of integrin alpha3beta1 (Homo sapiens) (P26006 33-991, chain 1 of 2): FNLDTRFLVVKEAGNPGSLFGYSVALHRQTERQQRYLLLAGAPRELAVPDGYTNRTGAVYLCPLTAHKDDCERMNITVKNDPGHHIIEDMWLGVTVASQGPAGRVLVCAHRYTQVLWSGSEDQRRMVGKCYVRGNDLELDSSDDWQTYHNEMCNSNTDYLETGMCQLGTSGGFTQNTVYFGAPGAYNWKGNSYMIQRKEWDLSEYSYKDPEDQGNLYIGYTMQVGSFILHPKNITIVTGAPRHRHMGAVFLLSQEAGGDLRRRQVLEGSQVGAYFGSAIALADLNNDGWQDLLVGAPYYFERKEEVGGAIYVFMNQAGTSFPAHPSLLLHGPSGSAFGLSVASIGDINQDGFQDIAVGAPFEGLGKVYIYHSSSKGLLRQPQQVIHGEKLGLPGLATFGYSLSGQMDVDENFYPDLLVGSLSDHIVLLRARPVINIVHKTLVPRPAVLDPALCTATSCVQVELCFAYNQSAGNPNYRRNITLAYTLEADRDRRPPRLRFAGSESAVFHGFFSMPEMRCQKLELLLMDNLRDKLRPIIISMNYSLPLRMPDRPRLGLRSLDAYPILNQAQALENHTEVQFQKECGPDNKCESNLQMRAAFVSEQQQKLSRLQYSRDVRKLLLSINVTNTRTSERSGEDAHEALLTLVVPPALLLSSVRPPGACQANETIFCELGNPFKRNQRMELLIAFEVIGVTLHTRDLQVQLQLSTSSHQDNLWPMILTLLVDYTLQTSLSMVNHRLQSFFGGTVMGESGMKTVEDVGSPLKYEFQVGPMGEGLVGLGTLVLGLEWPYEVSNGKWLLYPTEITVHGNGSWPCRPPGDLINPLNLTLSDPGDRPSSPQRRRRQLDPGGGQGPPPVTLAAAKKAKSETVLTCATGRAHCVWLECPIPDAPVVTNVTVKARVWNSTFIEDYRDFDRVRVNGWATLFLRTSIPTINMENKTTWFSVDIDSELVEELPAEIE
Chain of integrin alpha3beta1 (Homo sapiens) (P05556 21-728, chain 2 of 2, further chain): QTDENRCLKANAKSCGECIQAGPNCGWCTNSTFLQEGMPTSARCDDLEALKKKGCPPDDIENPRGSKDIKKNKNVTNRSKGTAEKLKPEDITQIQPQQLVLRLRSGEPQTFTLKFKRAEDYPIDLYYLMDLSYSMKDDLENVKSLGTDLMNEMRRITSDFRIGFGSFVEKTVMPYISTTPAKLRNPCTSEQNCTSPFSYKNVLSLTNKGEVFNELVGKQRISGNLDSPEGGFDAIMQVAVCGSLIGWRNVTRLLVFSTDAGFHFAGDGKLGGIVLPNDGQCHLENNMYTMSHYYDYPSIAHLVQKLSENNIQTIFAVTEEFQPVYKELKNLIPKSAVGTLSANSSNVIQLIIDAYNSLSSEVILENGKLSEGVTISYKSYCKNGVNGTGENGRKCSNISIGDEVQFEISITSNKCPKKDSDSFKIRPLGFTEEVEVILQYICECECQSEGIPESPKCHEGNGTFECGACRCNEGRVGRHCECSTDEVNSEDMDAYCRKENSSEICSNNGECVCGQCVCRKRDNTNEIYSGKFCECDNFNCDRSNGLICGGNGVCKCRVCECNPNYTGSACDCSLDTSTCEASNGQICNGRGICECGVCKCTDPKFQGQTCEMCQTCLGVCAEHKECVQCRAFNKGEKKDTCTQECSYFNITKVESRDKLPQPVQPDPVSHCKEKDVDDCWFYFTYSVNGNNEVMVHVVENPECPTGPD

Chain of Integrin α3β1 (P26006 33-1051, chain 1 of 2): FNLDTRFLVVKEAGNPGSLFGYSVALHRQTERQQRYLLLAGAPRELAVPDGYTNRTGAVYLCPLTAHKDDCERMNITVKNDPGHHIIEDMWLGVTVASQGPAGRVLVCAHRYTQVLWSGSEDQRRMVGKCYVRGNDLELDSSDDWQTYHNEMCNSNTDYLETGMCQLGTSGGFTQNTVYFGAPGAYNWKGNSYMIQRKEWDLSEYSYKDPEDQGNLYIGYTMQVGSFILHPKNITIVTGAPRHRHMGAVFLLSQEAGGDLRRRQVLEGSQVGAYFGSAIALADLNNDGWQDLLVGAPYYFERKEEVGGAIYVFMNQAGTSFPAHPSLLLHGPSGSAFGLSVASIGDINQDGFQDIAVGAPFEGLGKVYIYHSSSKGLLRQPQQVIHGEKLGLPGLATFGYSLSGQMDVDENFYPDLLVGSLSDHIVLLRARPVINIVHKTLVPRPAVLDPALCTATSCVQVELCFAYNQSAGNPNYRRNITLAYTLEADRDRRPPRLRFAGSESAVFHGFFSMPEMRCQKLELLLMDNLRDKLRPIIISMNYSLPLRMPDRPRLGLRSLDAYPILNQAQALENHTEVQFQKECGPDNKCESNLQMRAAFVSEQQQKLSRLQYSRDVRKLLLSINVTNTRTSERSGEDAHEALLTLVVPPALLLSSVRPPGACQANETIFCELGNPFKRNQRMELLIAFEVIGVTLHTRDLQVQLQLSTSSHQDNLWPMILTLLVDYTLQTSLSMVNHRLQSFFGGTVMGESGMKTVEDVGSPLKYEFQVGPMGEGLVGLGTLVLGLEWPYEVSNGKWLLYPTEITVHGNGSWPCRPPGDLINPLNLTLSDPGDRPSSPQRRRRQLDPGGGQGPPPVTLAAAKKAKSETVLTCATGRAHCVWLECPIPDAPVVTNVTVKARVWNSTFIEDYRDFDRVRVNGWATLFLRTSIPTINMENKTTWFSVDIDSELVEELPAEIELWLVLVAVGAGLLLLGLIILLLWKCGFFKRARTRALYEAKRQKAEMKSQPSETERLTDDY
Chain of Integrin α3β1 (P05556 21-728, chain 2 of 2, further chain): as the sequence (P05556 21-728, chain 2 of 2, further chain) above
Chain of TIMP-2 (P16035 27-220): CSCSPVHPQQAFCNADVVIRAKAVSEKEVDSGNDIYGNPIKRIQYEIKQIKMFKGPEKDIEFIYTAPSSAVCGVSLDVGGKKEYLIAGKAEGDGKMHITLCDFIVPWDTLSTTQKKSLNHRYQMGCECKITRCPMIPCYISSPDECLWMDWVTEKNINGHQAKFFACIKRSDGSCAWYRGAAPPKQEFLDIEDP

With “Ala+TIMP-2 (from UniProt P16035 27-220) (natural protein)” the inhibition of VEGF-A-stimulated (10 ng/mL) growth of hMVECs, 100 nM protein [1] was 75%.
In the case of TIMP-2 (from UniProt P16035), the Kd [2] is listed as 0.9 nM.
